{
  "source": "the DeepSol protein solubility set",
  "data": [
    {"test": "soluble on expression in E. coli; label from the status in PepcDB or PDB records", "values": [
      {"sequence": "MGSDKIHHHHHHMLWRLKGVPFVGFDVARVRGLYTSLGDGWTYLNSHQIPQVPERVASGVAAAFRTHAQISEVTSQPIAVDQLEAAREAVASLAGVDPDCVVLGPTRQFLAHTLARGLGGFVRRKAGVVLSRADADWLTAPFRSLDGVFSWAEPDLGTGMLPDWQYEKLVDGSTRLVVLSAAHPLLGTVAPVGKIVDKVRARSRAWVLVDATTYAAYRPLRLDEWEADIVMLDLGELGGPQISALIFRDTSMFPRLDRTVPLELPASSLPHGLLGGVPNLVRHLGNLDENAPSVVEAMGEMAKFHKGLFEHLVESLEGLHAVHIVGISGDAAGQDAAFLDRVPRLTFTMEGVPADMVYRRLVDNRLITTVSPADPLLEAMGVTEAGGSITIGLSPFSTYYEVDQLTRVLASLA", "soluble on expression in E. coli": "not soluble"},
      {"sequence": "MESTSTTVPSIVVYVTVPNKEAGKRLAGSIISEKLAACVNIVPGIESVYWWEGKVQTDAEELLIIKTRESLLDALTEHVKANHEYDVPEVIALPIKGGNLKYLEWLKNSTRES", "soluble on expression in E. coli": "soluble"},
      {"sequence": "MGSDKIHHHHHHMMRALYTAATGMRAEQTNVDTIANNLSNVNTTGFKGQRTEFKSLLYQTIQTRSTSGNGDAKPVGAQVGLGTRVAATTSTYTQGPLNSTERPTDFALEGDGFFAVRGTDNQTYYTRNGAFTWSQYGNGQTILTDSQGNPVMDTNGNIIAVPAGVSAEKMSFGEDGAVGYMTAQGNYINLNQRIAVYQFNNPSGLEKQSGSLLAATANSGNPMLEIANPALKSSKVVTGYLEGSNVQVADEMVNLIVAQRAYELNSKAITTADSMLETANNLRR", "soluble on expression in E. coli": "not soluble"},
      {"sequence": "MGSDKIHHHHHHMHHVVGVRFKKAGKIYYFSPGDLDIPRGESVIVETSRGVEYGNVVIEKKTVGDNDVVLPLKQVIRVATEKDKLAVQENKEAAKKAYDVCVQKIMEHQLDMKLVDVEYTFDRNKVLFYFTADGRIDFRELVKDLASVFRTRIELRQIGVRDEAKMLGGIGPCGRILCCSSFLGDFEPVSIKMAKDQNLSLNPAKISGLCGRLMCCLKYENDMYESAKQELPDLGETIDTPHGKGKVVGLNMLERLVQVHLFEGERVLEFSLEELLERGAVSAEATE", "soluble on expression in E. coli": "not soluble"},
      {"sequence": "MSLCRVLSVKPSSYYDWINRDISSQQIHRNQSELLIKAAHSETKERYGFERLHAHLNEQGYDISPYMVRNIKEEHGIKCRRHKRFKVTTDSNHNKLIYDNVLDQQFDVNRPNEAWVSDITYIWTTEGWLYLAGVKDLYTKELVGYAINKRMTADLVCKALNMAIKNKRPSKGLIVHSDRGGQYCSHAYHKIIKQHQFKGSMSGKGNCYDNAPIESFWGVLKNELVYHQDYKTRFAAITDIIRYIELYYNQTRIQKGLGYKSPRQVWFDYYRQAAEGHHHHHH", "soluble on expression in E. coli": "soluble"},
      {"sequence": "MQKWIGIMGIIFILTGCKMSEAPTNLMEAPANEKWINELKEQIDKDLPVNYRLLTPMSNKDKQMIWSMDFKQDNKKEAVIFYKLPNADHSVYLAVYEKNGNGWKTKSTHKFNGGDVDIVEVGDFTGNGKRELLIGISVDRESLKHVMYVFSEENEDMREIYNRNYTKLFIDDLNKNGLKDLSLVTYEKDEKLIVEFIEQFKTLSEASFDPFINSIQRIQMGRISKSLKAIVIDAGVGAHSGITYVAKFDENHYEVLPIDGKEDLFNEYVVESKDVNEDGIIEFVRTVRPKGWEDKPHGDSPLFERYIQWSESGIKPIEERYIDIEKGYYVKIPKELIGKITISDEQKESNSQKFLETSTNETWLEVHIFKRKEWFGIKGYSAAVKTASHVYAVPKQPHFEKVKAYVKPLADYQQE", "soluble on expression in E. coli": "not soluble"},
      {"sequence": "MGSDKIHHHHHHAVSAEEAKELGHKLTEFGAEKAGNADGSIPPYTGGVKDLAIPADFKPGSGHYPDPFKDEKPLVSITKANEAQYAEFLMPGTKALLERLPGFRIDVYKTHRTMAYPDWVLKNTVGCARTAKLVGSVTGDGVEGAFACIPFPIPKNGYEVMWNQNLRYQGVRTDFRFRTILIDESGHKTLMGDNETQFIYQYYDRNGSKLPDNFFRTGFTRFYGPPSEVGMMTLAKYSINDGTDDDTTWIYMPGQRRVRVAPEYKYDTPMAAIGGTLLFDEVGGFQGRMDRFDFKLVGKKEMFVPYNNYRAYNSSDLVGDKYANPDDVRWEKHRVWVVEATLKPGERNIYSHRTYYIDEDTWLIVGYEAYDQSNALYRAGYTLDIVPYDKPRVGQPNAIMYDLTKGNYSVTADQGTPSQHMIPFDDLPNMGNYNTQALLNAGVR", "soluble on expression in E. coli": "not soluble"},
      {"sequence": "MQSFNSGSTKIHNAFPEESTRPQKAEGNTAMNILVLGSDSRGSSDADVEANTATDQRADTLMLVHVPADRKKTYAISLMRDLWIDIPGVGESKINAALAYGGVPLMVQTVESLLQQRIDHVAMIDFQGFKGLTDALGGVEVDVRIPFAPSSGPKAGQVYDAGKQTLNGDEALAFVRERKAFSDGDYQRVRNQQAYLKAIIGKVIARETLTNPVTISNMVSAVSPFVSVDKDFDAAAIGSLALSMKDVRAQDTVMFTLPTLGTGTSPDGQSIVLADTTAIADVTAALAKDQVDAYITAHALDKGFLEHHHHHH", "soluble on expression in E. coli": "soluble"},
      {"sequence": "MVRVDQNLFNEVMYLLDELSQDITVPKNVRKVAQDSKAKLSQENESLDLRCATVLSMLDEMANDPNVPAHGRTDLYTIISKLEALS", "soluble on expression in E. coli": "soluble"},
      {"sequence": "DIMVVVDAGHGGKDPGAVGSRGEREKDVVLSIAQLLAKRLKREKGFDVRLVRNDDFFVPLRKRVEFAHKSNADMFISVHADAAPRLTASGASVFALSEGGATSATARFMAQRENGADLLGATSLLNLKDKDPMLAGVILDMSMNATIAASLQLGHTILGSLEGITTLHQKRVEQAGFAVLKSPDVPSILVETGFISNSRDSQRLVTARHQQAVADGLFDGLQRYFQRNPPMDSHLAWMQAQKQEQQA", "soluble on expression in E. coli": "not soluble"},
      {"sequence": "MNPKHFIAFSALFAATQAEALPVASVSPDTVTVSPSAPYTDTNGLLTDYGNAAASPWMKKLRSVAQGSGEAFRILQIGDSHTAGDFFTDALRKRLQKTWGDGGIGWVYPANVKGQRMAAVRYNGNWQSLNSRSAAADFPLGGILAQTGSGGSMTLTASDGKTGKQRVSLFAKPLLAEQTLTVNGNTVSANGGGWQVLDTGAALPLAIQTEMPWDIGFINIENPAGGITVSAMGINGAQLTQWSKWRADRMNDLAQTGADLVILSYGTNEAFNNNIDIADTEQKWLDTVRQIRDSLPAAGILIIGAPESLKNTLGVCGTRPVLLTEVQQMQRRVARQGQTMFWSWQNAMGGICSMKNWLNQGWAAKDGVHFSAQGYRRAAEMLADSLEELVRAAAIR", "soluble on expression in E. coli": "soluble"},
      {"sequence": "MSKILDVQGIVKRATELNDFGHLLEHVPYAKFIGMKVERFGDELIFKLPAKDDNIGNPILPAIHGGVIAGFMEMSAIVQLMVFMQTAKVPKVVDFSIDYLRAGLHKDSFAECRITRQGRRVANVSINCWQTNRKQLIATARAHFLIDLEHHHHHH", "soluble on expression in E. coli": "not soluble"},
      {"sequence": "MAHHHHHHMYGPSFSQTVLVAATPVVMKSPPTFFKGGNFRRISRRSTLKTTPERVPRNMYQFIVGSPSGELGHHSMDVMVSVQETVIDSGITQMCCSMLKNRRRRSLWRVTYVFGNSGDTLYNCRALSIDGLARRSMRPSPVPPDKLLSSAALIPFSVPRDFFIVFN", "soluble on expression in E. coli": "not soluble"},
      {"sequence": "MGSDKIHHHHHHMMKKTHYNILMVNLPFSGHTNPTLGLAQILVQLGHNVTYINAPDWQSKIERTGAHFVPYDHYPDSLSERQKKVKSWSAAYQTVLRMGKDYDCLIYEMLFFPGKALADRLNIPAYRLFSTFSLNEKILTEFGKTGGFYLTSIFRFTFLRHLLSRKLQRTFQLAYDDLAKEISLNTPELNFTYTVREFQIDADTFDENHYQYVGPSINRPVEPPFDFTPFKNPIIYISLGTLLNRSVSFFKKCIKAFENEPYSIIISLGNRIKKEQLGTMPANVHLYSFVPQLQILERASLFLTHGGMNSVNEAIYYGCPMLVIPVGNDQPRVAQQVADLHLGKCLKCHNLNPQEIKQAAHTILKDSSYKNTIWHFQKIAQTAGGNTLIAQTIIKDLQTKP", "soluble on expression in E. coli": "not soluble"}
    ]}
  ]
}
